Measured values reported in patent US20250154202A1 (published 2025).
Bridge positions count the residues as written; N and C are the ends. Square brackets hold non-standard residues; d marks the D form. Ends that are not written are not given here.

B1: Ac-Ser-Arg-Leu-Glu-Glu-Glu-Leu-Arg-(cyclo9)Lys-Arg-Leu-Thr-(cyclo13)Glu-NH2 (peptide)
peptide: Ac-SRLEEELRKRLTE-NH2
modifications: lactam 9-13
SMILES: CC(=O)N[C@@H](CO)C(=O)N[C@@H](CCCNC(=N)N)C(=O)N[C@@H](CC(C)C)C(=O)N[C@@H](CCC(=O)O)C(=O)N[C@@H](CCC(=O)O)C(=O)N[C@@H](CCC(=O)O)C(=O)N[C@@H](CC(C)C)C(=O)N[C@@H](CCCNC(=N)N)C(=O)N[C@H]1CCCCNC(=O)CC[C@@H](C(N)=O)NC(=O)[C@H]([C@@H](C)O)NC(=O)[C@H](CC(C)C)NC(=O)[C@H](CCCNC(=N)N)NC1=O
notes: Cyclic ALFA tag; also called SD15193
B2: Ac-Ser-Arg-Leu-Glu-(cyclo5)Glu-Glu-Leu-(cyclo8)Lys-Arg-Arg-Leu-Thr-Glu-NH2 (peptide)
peptide: Ac-SRLEEELKRRLTE-NH2
modifications: lactam 5-8
SMILES: CC(=O)N[C@@H](CO)C(=O)N[C@@H](CCCNC(=N)N)C(=O)N[C@@H](CC(C)C)C(=O)N[C@@H](CCC(=O)O)C(=O)N[C@H]1CCC(=O)NCCCC[C@@H](C(=O)N[C@@H](CCCNC(=N)N)C(=O)N[C@@H](CCCNC(=N)N)C(=O)N[C@@H](CC(C)C)C(=O)N[C@H](C(=O)N[C@@H](CCC(=O)O)C(N)=O)[C@@H](C)O)NC(=O)[C@H](CC(C)C)NC(=O)[C@H](CCC(=O)O)NC1=O
notes: Cyclic ALFA tag; also called SD15192
B3: Ac-Ser-Arg-Leu-Glu-(cyclo5)Asp-Glu-Leu-Arg-(cyclo9)Lys-Arg-Leu-Thr-Glu-NH2 (peptide)
peptide: Ac-SRLEDELRKRLTE-NH2
modifications: lactam 5-9
SMILES: CC(=O)N[C@@H](CO)C(=O)N[C@@H](CCCNC(=N)N)C(=O)N[C@@H](CC(C)C)C(=O)N[C@@H](CCC(=O)O)C(=O)N[C@H]1CC(=O)NCCCC[C@@H](C(=O)N[C@@H](CCCNC(=N)N)C(=O)N[C@@H](CC(C)C)C(=O)N[C@H](C(=O)N[C@@H](CCC(=O)O)C(N)=O)[C@@H](C)O)NC(=O)[C@H](CCCNC(=N)N)NC(=O)[C@H](CC(C)C)NC(=O)[C@H](CCC(=O)O)NC1=O
notes: Cyclic ALFA tag; also called SD15196
B4: Ac-Pro-Ser-Arg-Leu-Glu-(cyclo6)Lys-Glu-Leu-Arg-(cyclo10)Glu-Arg-Leu-Thr-Glu-NH2 (peptide)
peptide: Ac-PSRLEKELRERLTE-NH2
modifications: lactam 6-10
SMILES: CC(=O)N1CCC[C@H]1C(=O)N[C@@H](CO)C(=O)N[C@@H](CCCNC(=N)N)C(=O)N[C@@H](CC(C)C)C(=O)N[C@@H](CCC(=O)O)C(=O)N[C@H]1CCCCNC(=O)CC[C@@H](C(=O)N[C@@H](CCCNC(=N)N)C(=O)N[C@@H](CC(C)C)C(=O)N[C@H](C(=O)N[C@@H](CCC(=O)O)C(N)=O)[C@@H](C)O)NC(=O)[C@H](CCCNC(=N)N)NC(=O)[C@H](CC(C)C)NC(=O)[C@H](CCC(=O)O)NC1=O
notes: Cyclic ALFA tag; also called SD15805
B5: Ac-Pro-Ser-Arg-Leu-(cyclo5)Glu-Glu-Glu-Leu-(cyclo9)Lys-Arg-Arg-Leu-Thr-Glu-NH2 (peptide)
peptide: Ac-PSRLEEELKRRLTE-NH2
modifications: lactam 5-9
SMILES: CC(=O)N1CCC[C@H]1C(=O)N[C@@H](CO)C(=O)N[C@@H](CCCNC(=N)N)C(=O)N[C@@H](CC(C)C)C(=O)N[C@H]1CCC(=O)NCCCC[C@@H](C(=O)N[C@@H](CCCNC(=N)N)C(=O)N[C@@H](CCCNC(=N)N)C(=O)N[C@@H](CC(C)C)C(=O)N[C@H](C(=O)N[C@@H](CCC(=O)O)C(N)=O)[C@@H](C)O)NC(=O)[C@H](CC(C)C)NC(=O)[C@H](CCC(=O)O)NC(=O)[C@H](CCC(=O)O)NC1=O
notes: Cyclic ALFA tag; also called SD15806
B6: Ac-Pro-Ser-Arg-Leu-Glu-(cyclo6)Glu-Glu-Leu-Arg-(cyclo10)Lys-Arg-Leu-Thr-Glu-NH2 (peptide)
peptide: Ac-PSRLEEELRKRLTE-NH2
modifications: lactam 6-10
SMILES: CC(=O)N1CCC[C@H]1C(=O)N[C@@H](CO)C(=O)N[C@@H](CCCNC(=N)N)C(=O)N[C@@H](CC(C)C)C(=O)N[C@@H](CCC(=O)O)C(=O)N[C@H]1CCC(=O)NCCCC[C@@H](C(=O)N[C@@H](CCCNC(=N)N)C(=O)N[C@@H](CC(C)C)C(=O)N[C@H](C(=O)N[C@@H](CCC(=O)O)C(N)=O)[C@@H](C)O)NC(=O)[C@H](CCCNC(=N)N)NC(=O)[C@H](CC(C)C)NC(=O)[C@H](CCC(=O)O)NC1=O
notes: Cyclic ALFA tag; also called SD15341
B7: Ac-Pro-Ser-Arg-Leu-Glu-(cyclo6)Glu-Glu-Leu-Arg-(cyclo10)dLys-Arg-Leu-Thr-Glu-NH2 (peptide)
peptide: Ac-PSRLEEELR[dK]RLTE-NH2
modifications: lactam 6-10
SMILES: CC(=O)N1CCC[C@H]1C(=O)N[C@@H](CO)C(=O)N[C@@H](CCCNC(=N)N)C(=O)N[C@@H](CC(C)C)C(=O)N[C@@H](CCC(=O)O)C(=O)N[C@H]1CCC(=O)NCCCC[C@H](C(=O)N[C@@H](CCCNC(=N)N)C(=O)N[C@@H](CC(C)C)C(=O)N[C@H](C(=O)N[C@@H](CCC(=O)O)C(N)=O)[C@@H](C)O)NC(=O)[C@H](CCCNC(=N)N)NC(=O)[C@H](CC(C)C)NC(=O)[C@H](CCC(=O)O)NC1=O
notes: Cyclic ALFA tag; also called SD15808

Legend:
[1] = biological target: T1, biotinylated NbALFA (NanoTag) (biotinylated (site not stated)); experiment: SPR, Biacore T200, biotinylated NbALFA captured on Biotin CAPture chip, peptide as analyte, multi-cycle kinetics, 1:1 model, 25 C
T1 construct: Bought from NanoTag and captured on the SPR chip through biotin; also called NbALFA-nanobody; Nanobody
T1 sequence (VHH, as listed by the source): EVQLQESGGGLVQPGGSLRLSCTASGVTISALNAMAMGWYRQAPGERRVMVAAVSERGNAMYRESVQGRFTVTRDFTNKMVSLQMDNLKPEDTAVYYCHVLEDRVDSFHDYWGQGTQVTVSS
Procedure: Affinity measurements were performed using a Biacore T200 (GE Healthcare, Biacore T200 control Software 3.2). For affinity measurement, the Biotin CAPture kit, series S (Cytiva Europe, Cat. no. 28920234) was utilized. A freshly docked Biotin CAPture chip was rehydrated overnight in the instrument (standby mode). The following day, the chip surface was conditioned three times with regeneration solution (6 M guanidine-HCl, 0.25 M NaOH) for 60 s at 10 μL/min on flow cell (FC) 1 and FC2. Subsequently, the Biotin CAPture reagent (Cytiva Europe, Cat. no. 29423383) was applied for 300 s at 2 μL/min on FC1 and FC2, followed by capturing of 25 nM biotinylated NbALFA (NanoTag). The immobilization of the Nanobody was done for 180 s at 10 μL/min on FC2 followed by quenching of unbound streptavidin by 0.1 mM biocytin for 60 s and 30 μL/min on both flow cells. […] injections of 10 nM, 5 nM, 2.5 nM, 1.25 nM, 0.625 nM and 0 nM (blank control) of cyclic ALFA variants were performed over both flow cells for 120 s with a flow rate of 40 μL/min, followed by dissociation for 1500 s. After each cycle, the surface was regenerated for 120 s with 10 μL/min using regeneration solution. All measurements were performed at 25° C. using HBS-EP+ buffer (Cytiva Europe, Cat. no BR100669). The control responses from FC1 were subtracted by the sample measurement in FC2 (FC2−FC1) followed by subtraction of the 0 nM blank injection. Resulting binding curves of this multi cycle kinetic experiment were fitted using the Biacore T200 Evaluation Software 3.2 and a 1:1 binding model.

anti-ALFA VHH [2] = experiment: dose-response curve fit (log(agonist) vs. response, variable slope), FIG. 2; assay format not described; unit from paragraph 98
anti-ALFA VHH, sequence (VHH, as listed by the source): as above

anti-ALFA VHH [3] = experiment: dose-response curve fit (log(agonist) vs. response, variable slope), FIG. 2; assay format not described

Binder	Kd [1]	koff [1]	kon [1]	EC50 (anti-ALFA VHH [2])	Bottom (anti-ALFA VHH [3])	LogEC50 (anti-ALFA VHH [3])	Span (anti-ALFA VHH [3])	Top (anti-ALFA VHH [3])
B1	0.0556 nM	0.00109 s⁻¹	1.95e+07 M⁻¹ s⁻¹	6.05 nM	0.145	0.782	1.29	1.44
Ac-SRLEEELRRRLTE-NH2 (Linear ALFA tag; also called SD15197) [Ac-Ser-Arg-Leu-Glu-Glu-Glu-Leu-Arg-Arg-Arg-Leu-Thr-Glu-NH2]	0.0117 nM	0.000593 s⁻¹	5.05e+07 M⁻¹ s⁻¹	2.6 nM	0.097	0.414	1.29	1.39
B2	0.0551 nM	0.000577 s⁻¹	1.05e+07 M⁻¹ s⁻¹	5.98 nM	0.152	0.776	1.2	1.35
B3	0.436 nM	0.0079 s⁻¹	1.81e+07 M⁻¹ s⁻¹	377 nM	0.0167	2.58	1.41	1.43
B4	0.103 nM	0.000964 s⁻¹	9.33e+06 M⁻¹ s⁻¹	–	–	–	–	–
B5	1.43 nM	4.94 s⁻¹	3.44e+09 M⁻¹ s⁻¹	–	–	–	–	–
SRLEEELRKRLTE (lactam 5-9; not fully specified (N-terminus, C-terminus), also called SD15194) [Ac-Ser-Arg-Leu-Glu-(cyclo5)Glu-Glu-Leu-Arg-(cyclo9)Lys-Arg-Leu-Thr-Glu-NH2]	0.0376 nM	0.00067 s⁻¹	1.78e+07 M⁻¹ s⁻¹	5.97 nM	0.159	0.776	1.27	1.43
B6	0.0194 nM	0.000361 s⁻¹	1.86e+07 M⁻¹ s⁻¹	–	–	–	–	–
B7	0.038 nM	0.000513 s⁻¹	1.35e+07 M⁻¹ s⁻¹	–	–	–	–	–
